Data on one molecule can be found in patent US12508311B2, “Fusion protein, and preparation method and use thereof” (SUN YAT-SEN UNIVERSITY, priority 2021, dated 2025).

The subject of assay [1] is KRas wild-type (HT29) colorectal cancer. Put plainly: In-vivo tumor formation experiment, HT29 subcutaneous tumor. On the set-up: species or system mice. The settings on record: seven times. The procedure: • (1) Balb/c nude mice, female, 4 weeks to 5 weeks old, purchased from Guangdong Laboratory Animal Center and raised in Laboratory Animal Center of Sun Yat-sen University, were used in this experiment. […] After counting, 7.5 million HT29 and HCT116 cells were taken respectively, washed twice with PBS, centrifuged at 300 g for 5 minutes after fishing each washing, and collected. • (3) The cell dilution buffer solution having the composition of PBS: matrix glue (Corning Company)=1:1 was prepared to resuspend the cells. […] In the experiment, the administration volume was 150 μL, the administration frequency was once every three days at a fixed time, and the administration was continued for seven times. • (6) After the administration, each mouse was injected with 150 μL of tribromoethanol, and then killed by cervical dislocation. […]
• (1) Balb/c nude mice, female, 4 weeks to 5 weeks old, purchased from Guangdong Laboratory Animal Center and raised in Laboratory Animal Center of Sun Yat-sen University, were used in this experiment. The experimental mice were divided into two groups, with five mice in each group, which were respectively a phosphate buffer solution (PBS) control group and a […]. • (2) The HT29 and HCT116 cells in the logarithmic phase were digested with pancreatin, the digestion was stopped with the complete culture solution, and then the cells were counted. […]

In assay [2] the target is T1, KRas protein in HT29 (KRas wt) cells (Homo sapiens, UniProt P01116).
T1 construct: host or cells: HT29
The assay is described as follows: Co-immunoprecipitation (Co-IP) in HT29 cells. The settings on record: 20 μg/mL, 24 hours, Lys05 10 μM. The class given is cell-based. As for the experimental part: The co-immunoprecipitation experiment (Co-IP) was an important means to detect the intracellular interaction of the protein. […] The experiment was carried out in the presence of the lysosome inhibitor Lys05 with a final concentration of 10 μM. • (2) The cells were cultured and treated at 37° C. for 24 hours, and then cleaned twice with PBS, and 1 mL of 0.25% pancreatin was added into each culture dish to digest the cells and make the cells fall off from the culture dish wall. Then, 2 mL of complete culture solution was added into each culture dish to stop the digestion , centrifuged at the room temperature and 300 g for 3 minutes, to collect the cells. […] The colorectal cancer cells were lysed on ice, turned upside down for several times every 5 minutes gently without vortex, and centrifuged at 4° C. and 12,000 rpm for 30 minutes after being lysed for 30 minutes. • (4) The supernatant was transferred to a new EP tube, the protein concentration was measured by the BCA method, and then 1 mg of protein was taken from each group for a Co-IP reaction. […] Meanwhile, 30 μL of protein sample was also taken from the Input group, vortically vibrated for 1 minute, boiled in boiled water for 10 minutes, and centrifuged, and the supernatant was collected in a new 1.5 mL EP tube. • (8) The protein concentration was measured by the BCA method. […]

B1: TKD: fusion protein: tumour-cell-penetrating peptide BR2, anti-KRas nanobody VHH and lysosome recognition peptide CTM; SEQ ID NO.4 (protein)
chain: RAGLQFPVGRLLRRLLRDVQLQESGGGLVQAGGSLRLSCVASGRTFSTYPTGWFRQAPGKEREFVARINLSGGITNYADSVKGRFTISRDNAKNTVYLQMNSLKPEDTAVYYCGGGSTTWAGGIPTNFDYWGQGTQVTVSSGRKFERQKILDQRFFE
As to B1, the “inhibition of tumor growth (tumor weight)” value in assay [1] (TKD 25 and 50 mg/kg intraperitoneal, once every three days, vs PBS) is “could significantly inhibit the growth”. The “tumor growth inhibition, TKD-50 mg/kg group compared with TKD-25 mg/kg group” value in assay [1] (intraperitoneal) is on record as “had a better effect than the TKD-25 mg/kg group”. Besides, the “binding to KRas protein in cells (Co-IP)” value in assay [2] is “could pass through the cell membrane and bind to the wild-type and mutant-type KRas proteins in cells without discrimination”.
